Results on one molecule are retold here after publication PMC4160017, “Poly(ADP‐ribose)‐mediated interplay of XPA and PARP1 leads to reciprocal regulation of protein function”.

The target of the data set is XPA (UniProt P23025 1-273). Nature of the data set: EMSA; XPA pre-incubated with short PAR (16-20-mer), no effect on binding; EMSA: 25 mM Hepes-KOH pH 8.3, 30 mM KCl, 0.4 mM MgCl2, 1 mM EDTA, 10% glycerol, 45 ug/mL BSA, 0.9 mM DTT; 30 min; temperature not stated. Poly(ADP-ribose) overlay binding (XPA, H1, BSA, PBM peptides) not listed: PAR is not DNA/RNA. The settings on record: protein: recombinant; tags: His-tag; label: biotin on the 19-mer; duplex of 19-mer and 25-mer with loop on one strand. A general note: Mobility shift assays separate free from complexed probe on a gel.
Sequence of XPA (P23025 whole entry): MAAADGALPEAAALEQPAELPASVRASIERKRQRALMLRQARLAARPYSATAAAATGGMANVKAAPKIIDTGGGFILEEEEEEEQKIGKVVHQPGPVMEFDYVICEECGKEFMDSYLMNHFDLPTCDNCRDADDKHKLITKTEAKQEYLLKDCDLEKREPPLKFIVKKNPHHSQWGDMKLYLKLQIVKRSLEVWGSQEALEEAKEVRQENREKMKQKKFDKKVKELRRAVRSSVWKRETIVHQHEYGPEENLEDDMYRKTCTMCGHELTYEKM

B1: loop-containing duplex (19-mer annealed with 25-mer) (dsDNA)
DNA 1: ACCACCCTTCGAACCACAC
DNA 2: GTGTGGTTCGCGCGCGAAGGGTGGT
In the case of B1, the binding result is reported as “binds”.
